From PMC3006652

Target: full-length UvsX (UvsX_(1–391)) (bacteriophage T4) (UniProt P04529)
Test: non-reducing SDS PAGE

Substance: full-length UvsX (UvsX_(1–391)) (from UniProt P04529 1-391) (natural protein)
- ratio of dimers and monomers under oxidizing conditions: 0.5
- stoichiometry N: 2
